In patent publication US20260029420A1, “ANTI-CB2 ANTIBODIES AND THEIR USE IN A FLOW CYTOMETRY ASSAY TO MEASURE CELL SURFACE CB2 EXPRESSION” (Hoffmann-La Roche Inc., priority 2022, published 2026):

Tests used:
Type in all cases: binding
pANITA3.1 hCB2 (JB175) [1] = target: T1, pANITA3.1 hCB2 (JB175) (Homo sapiens, UniProt P34972); experiment: Immunofluorescence on methanol-fixed transfected cells; design: key: “−” no fluorescence detected; “+”-“++++” intensity of fluorescent signal; “+”-“++++” intensity of fluorescent signal; “+”-“++++” intensity of fluorescent signal; “+”-“++++” intensity of fluorescent signal; conditions: pANITA3.1 hCB2 (JB175) cells
T1 construct: expressed in transfected cells; host or cells: HEK293
Experimental: (§1) The positive clones (Table 1) were further characterized by immunofluorescence (IF; Table 2), Western Blot (Table 3, 1) and Immune precipitation (Table 4, 2) on full length hCB2, hCB1, mCB2 stable-transfected CHO-cell lines in addition to the 2 pANITA constructs.
(§2) For IF analysis, methanol-fixed cells were incubated for 20 min in a humid chamber at 37° C. with the respective hCB2 and mCB2 clones. After rinsing twice and washing for 15 min in PBS, 125 μg/ml FITC-conjugated […] anti-mouse IgG antibodies (RAM/IgG (H+L)/FITC, Nordic
(§3) Immunological Laboratories) diluted in PBS was added and incubated for 20 min in a humid chamber at 37° C. Cells were rinsed twice and washed for 15 min in PBS, mounted with mounting solution (50% PBS 50% glycerol) and covered with a coverslip. Staining was assessed by fluorescence microscopy on a Leica CTR500 fluorescence microscope and a Leica DFC300 FX digital camera.

pANITA3.1 mCB2 (JB176) [2] = target: T2, pANITA3.1 mCB2 (JB176) (Mus musculus, UniProt P47936); experiment: as above; design: key: “−” no fluorescence detected; “+”-“++++” intensity of fluorescent signal; “+”-“++++” intensity of fluorescent signal; “+”-“++++” intensity of fluorescent signal; “+”-“++++” intensity of fluorescent signal; conditions: pANITA3.1 mCB2 (JB176) cells
T2 construct: expressed in transfected cells; host or cells: HEK293
Experimental: as §1, §2, §3

pANITA3.1 hCB2 (JB175) [3] = target: T1, pANITA3.1 hCB2 (JB175); experiment: Western blot of cell lysates; design: key to Western Blot signal intensity: “−” no signal; “+”-“+++++” signal intensity; “+”-“+++++” signal intensity; “+”-“+++++” signal intensity; “+”-“+++++” signal intensity; “+”-“+++++” signal intensity
Experimental: as §1
(§4) For Western blot analysis, cells were collected using enzyme free dissociation buffer (Cell dissociation buffer enzyme-free Hanks'-based, Gibco), and washed two times with PBS. To prepare cell lysate, 10^6 cells were lysed with 0.1 ml of lysis buffer (1% NP40, 10% glycerol, 2 mM EDTA, 137 mM NaCl, 20 mM TrisHCl, pH8, Protease Inhibitors) for 10 min on ice. The lysate was cleared by centrifugation at 20′000 g for 5 min. For SDS-PAGE cell lysate was resolved on precast 4-12% gradient gels (NuPAGE® Novex 4-12% Bis-Tris Gel, Invitrogen) with MES running buffer according to the manufacturer's directions. The separation of proteins was visualized by Colloidal Blue staining. The proteins were electrophoretically transferred to nitrocellulose membrane using a dry-blotting system (iBlot, Invitrogen). After blocking the membrane for 16 h in blocking buffer (5% Milk in PBS) at 4° C., specific proteins were detected with appropriate dilutions of mAbs in blocking buffer for 1 h at approximately 20° C. The membrane was then washed four times for 5 minutes in blocking buffer and incubated with horseradish peroxidase conjugated anti-mouse IgG mAb (GAM/IgG (g-chain)/HRP, Sigma, A9917) diluted 1:10'000 in blocking buffer at approximately 20° C. for 1 h. After washing again, blots were developed using ECL Western blotting detection reagents (ECL Western Blotting Substrate, Pierce) to visualize bands.
(§5) Expression of recombinant proteins in pANITA3.1 transfected cells was confirmed by Western blot analysis using anti-His tag antibodies. Cells expressing rat Glucose-dependent insulinotropic polypeptide receptor (GIPR), also a G-protein coupled receptor, were used as a negative control.

pANITA3.1 mCB2 (JB176) [4] = target: T2, pANITA3.1 mCB2 (JB176); experiment: Western blot of cell lysates; design: key to Western Blot signal intensity: “−” no signal; “+”-“+++++” signal intensity; “+”-“+++++” signal intensity; “+”-“+++++” signal intensity; “+”-“+++++” signal intensity; “+”-“+++++” signal intensity
Experimental: as §1, §4, §5

CHO K1 h CB2 cell line = target: T3, CHO K1 h CB2 cell line (Homo sapiens, UniProt P34972); experiment: Flow cytometry with increasing antibody levels on CHO K1 cells; conditions: 0.1, 1 or 10 μg/ml antibody; CHO K1 hCB2
T3 construct: expressed in transfected cells; host or cells: CHO K1
Description: (§6) FIG. 3: Analysis of the specificity of the anti hCB2 antibody 1/622 for hCB2. Flow cytometric analysis with increasing concentrations of hCB2 antibody 1/622 in CHO cells transfected with hCB2 (light brick) and hCB1 (dark brick). Untransfected CHO cells (black) serve as a negative control. For detection an F(ab)2 goat-anti Mouse IgG3 PE antibody was used.
(§7) Further evidence for the specificity of the anti-human CB2 antibody 1/622 was generated by flow cytometry experiments using increasing levels of the antibody on untransfected, hCB1 or hCB2 transfected CHO K1.
(§8) The cells were washed 1× with 1× DPBS without CaCl2 and MgCl2 (Gibco, #14190-094). Accutase (Sigma, #A6964) was added and the cell were placed back in the incubator. Once the cells had detached, they were collected in a Falcon tube containing DMEM high glucose+GlutaMAX (Gibco, #31966-021) and 10% heat inactivated FBS (Gibco, #16140-071). Cells were centrifuged for 5 minutes at 250×g and 4° C. and the cell pellet was resuspended in cell staining buffer (BioLegend, #420201) and put them on ice until further usage. The cells were incubated with 0.1, 1 or 10 μg/ml hCB2-1/622 antibody and incubated for 30 minutes at 4° C. After the incubation, the tubes were centrifuged for 5 minutes with 250×g and 4° C. The supernatant was removed completely, cells were washed two times with cold cell staining buffer and supernatant removed completely after the centrifugation. Human FcR Blocking Reagent (Miltenyi Biotech, Cat #130-059-901) was diluted according to the package insert instructions with cold cell staining buffer. To each sample 50 μl was added, mixed and incubated for 10 minutes at 4° C. The secondary antibody Goat F(ab′)2 Anti-Mouse IgG3 PE (Southern Biotech, Cat #1102-09) was diluted 1:25 in cold cell staining buffer. To each sample 50 μl was added, mixed and incubated for 30 minutes at 4° C. in the dark. After the incubation cells were washed 2× with cold cell staining buffer and supernatant removed completely after centrifugation. […]

CHO K1 hCB1R = target: T4, CHO K1 hCB1R (Homo sapiens, UniProt P21554); experiment: as above; conditions: 0.1, 1 or 10 μg/ml antibody
T4 construct: expressed in transfected cells; host or cells: CHO K1
Description: as §6, §7, §8

[5] = test system: untransfected CHO K1 controls; experiment: as above; conditions: 0.1, 1 or 10 μg/ml antibody
Description: as §6, §7, §8

T2 sequence (P47936 with tags, fused parts or gaps): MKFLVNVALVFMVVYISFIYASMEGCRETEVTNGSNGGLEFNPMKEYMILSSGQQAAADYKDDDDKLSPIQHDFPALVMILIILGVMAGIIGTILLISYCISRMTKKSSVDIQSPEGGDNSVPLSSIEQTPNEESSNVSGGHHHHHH
T1 sequence (P34972 with tags, fused parts or gaps): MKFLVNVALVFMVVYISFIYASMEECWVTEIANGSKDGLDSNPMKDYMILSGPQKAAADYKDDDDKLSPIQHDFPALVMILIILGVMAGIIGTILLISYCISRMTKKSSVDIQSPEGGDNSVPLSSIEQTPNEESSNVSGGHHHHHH
T3 sequence (P34972 whole entry): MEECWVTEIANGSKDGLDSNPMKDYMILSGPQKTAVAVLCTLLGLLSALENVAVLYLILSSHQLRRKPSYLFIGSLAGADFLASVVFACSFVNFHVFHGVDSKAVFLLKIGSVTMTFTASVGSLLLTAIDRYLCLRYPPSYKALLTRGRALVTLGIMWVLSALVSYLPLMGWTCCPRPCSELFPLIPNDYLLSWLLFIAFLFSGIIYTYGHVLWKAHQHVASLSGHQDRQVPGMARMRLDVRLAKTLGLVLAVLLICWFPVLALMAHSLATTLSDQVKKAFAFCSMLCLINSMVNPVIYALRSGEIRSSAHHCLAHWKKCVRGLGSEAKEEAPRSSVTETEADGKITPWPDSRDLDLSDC
T4 sequence (P21554 whole entry): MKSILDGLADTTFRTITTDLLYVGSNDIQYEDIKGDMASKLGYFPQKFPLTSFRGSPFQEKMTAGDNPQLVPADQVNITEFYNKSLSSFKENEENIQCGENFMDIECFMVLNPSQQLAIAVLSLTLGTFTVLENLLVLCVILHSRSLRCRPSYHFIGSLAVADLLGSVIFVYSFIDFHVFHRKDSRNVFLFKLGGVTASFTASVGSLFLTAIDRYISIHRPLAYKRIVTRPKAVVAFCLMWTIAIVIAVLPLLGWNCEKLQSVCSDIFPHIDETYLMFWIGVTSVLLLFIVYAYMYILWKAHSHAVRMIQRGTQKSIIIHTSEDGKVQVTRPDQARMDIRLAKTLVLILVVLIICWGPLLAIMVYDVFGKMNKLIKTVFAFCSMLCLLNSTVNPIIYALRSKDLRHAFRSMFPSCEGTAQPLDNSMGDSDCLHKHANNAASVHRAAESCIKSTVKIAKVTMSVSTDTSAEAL

B1: hCB2-1/622: murine IgG3 monoclonal anti-human CB2 antibody, VH SEQ ID NO: 1, VL SEQ ID NO: 2, HC SEQ ID NO: 3, LC SEQ ID NO: 4 (antibody)
heavy: EVQLQQSGPELVKPGASVKISCKTSGYTFTEYTMHWVRQSHGKSLEWIGGIDRYNGDTYYNQKFKDKATLTVDRSSSTAYMELRSLTSEDSAVYFCARNGAMDYWGQGISVTVSSATTTAPSVYPLVPGCSDTSGSSVTLGCLVKGYFPEPVTVKWNYGALSSGVRTVSSVLQSGFYSLSSLVTVPSSTWPSQTVICNVAHPASKTELIKRIEPRIPKPSTPPGSSCPPGNILGGPSVFIFPPKPKDALMISLTPKVTCVVVDVSEDDPDVHVSWFVDNKEVHTAWTQPREAQYNSTFRVVSALPIQHQDWMRGKEFKCKVNNKALPAPIERTISKPKGRAQTPQVYTIPPPREQMSKKKVSLTCLVTNFFSEAISVEWERNGELEQDYKNTPPILDSDGTYFLYSKLTVDTDSWLQGEIFTCSVVHEALHNHHTQKNLSRSPGK
light: DVVMTQTPLSLPVSLGDQASISCRSSQSLVHSNGNTYLHWFLQKPGQSPKLLIYKVSIRFSGVPDRFSGSGSGTDFTLKISRVEAEDLGVYFCSQSTHVPPLTFGAGTKLELKRADAAPTVSIFPPSSEQLTSGGASVVCFLNNFYPKDINVKWKIDGSERQNGVLNSWTDQDSKDSTYSMSSTLTLTKDEYERHNSYTCEATHKTSTSPIVKSFNRNEC
immunofluorescence signal intensity (pANITA3.1 hCB2 (JB175) [1]): ++++ | immunofluorescence signal intensity (pANITA3.1 mCB2 (JB176) [2]): − | Western blot detection (pANITA3.1 hCB2 (JB175) [3]; hCB2): distinct band | Western Blot signal intensity (pANITA3.1 hCB2 (JB175) [3]; pANITA3.1 hCB2 (JB175) lysate): +++ | Western blot detection (pANITA3.1 mCB2 (JB176) [4]; mCB2): no mCB2, hCB1 or rat GIPR was detected | Western Blot signal intensity (pANITA3.1 mCB2 (JB176) [4]; pANITA3.1 mCB2 (JB176) lysate): − | median fluorescence intensity (MFI) signal (CHO K1 h CB2 cell line): dose related increase | median fluorescence intensity (MFI) signal (CHO K1 hCB1R): remained at background levels | median fluorescence intensity (MFI) signal [5]: remained at background levels
